Results taken from the supplement of paper PMC12764529.
± gives the half width of the 95% confidence interval.

Legend:
[1] = folding stability dG unfold from chymotrypsin proteolysis; higher = more stable
How it was run: (§1)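 Unfolding free energy was derived, per protease or combined, against a sequence-predicted unfolded-state K50 and a shared folded-state K50, starting from K50 inferred by Bayesian fitting of sequencing counts. Digestion with trypsin and chymotrypsin was carried out on designed mini-proteins under 80 residues without cysteine in a PA-tagged cDNA display construct. Only designs with AlphaFold2 dimer inter-PAE above 15 were kept.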

[2] = folding stability dG unfold from trypsin proteolysis; higher = more stable
How it was run: as §1

[3] = folding stability dG unfold (combined trypsin and chymotrypsin); higher = more stable
How it was run: as §1

Sequence	folding stability dG unfold [1] [kcal/mol]	folding stability dG unfold [2] [kcal/mol]	folding stability dG unfold [3] [kcal/mol]
SAGGSSVRISFPNGYTVEITVTEDSATITLRSPTSTETVEFPSSVQVTITGPLNQPVTFDIPSSSESAGGSA [r2_57_TrMRF]	2.811 ± 0.024	2.77 ± 0.077	2.8 ± 0.057
SAGGSAVPKLPTGVEVEPLAVIDPETASPEEIRALLAEHPGPLLVRPSSTGEWRVVPAEELLALLGSAGGSA [r15_904_JUSTAS]	1.19 ± 0.076	0.984 ± 0.034	1.1 ± 0.071
SAGMGVSTFPVEIVTKPDDITEEELKKRAIERLKKLFPGVKLKEVKFDIPVRELPGDEIVITMNITVNVSAG [r14_145_JUSTAS]	1.01 ± 0.035	1.57 ± 0.068	1.33 ± 0.056
SAGGMYRVKVGDDERLIDTDPENFKTLEEAVKKVAEKIKEEYPNRPELTITVEAEDGTPLATVTITLSSAGG [r13_257_JUSTAS]	0.614 ± 0.19	0.759 ± 0.12	0.894 ± 0.29
SAGGSAMPKIEVTVYFPENGTETVEIHFPPGKVITGPLSLLEEIIESGIPKENISISYKTLSPSLTSAGGSA [r15_955_JUSTAS]	1.05 ± 0.061	1.64 ± 0.03	1.37 ± 0.041
SAGGSAGGSAGGSFGAVKARFKVEFVARAEDGSLYPVELEFEVEVPVLPPLPFLHPDLFSAGGSAGGSAGGS [r4_325_TrMRF]	2.35 ± 0.038	1.86 ± 0.051	2.18 ± 0.068
SAGGMKIVSVEVVKDEETGVYVIKLTVEDPETNETYTLEVVIKNEDGELKTITVKAKSKEDALKELLKSAGG [r13_26_TrROS_Hall]	3.6 ± 0.14	1.85 ± 0.067	3.1 ± 0.23
SAGKIKIDVMPPGWFLRIKIEHGGKEQERMIPIPGDSVDEIVKEALDEIQQHFPNKPIKVDIEIYPVDDSAG [r5_180_TrROS]	1.29 ± 0.37	1.03 ± 0.2	0.874 ± 0.37
SNFPPGQQIKFTFRLPDNGMKIKIEVHVHPDGYVQVRMERENPDNGKRVKITFYVPGPTLDEILDFIEQFSA [r9_618_TrROS]	3.852 ± 0.038	2.97 ± 0.09	3.52 ± 0.08
SAGEPIRIKIMIMNPDGKLRPIVEIPIPPDDIKEIEIKDDSIEIELPGDGKTLMFRINNYPIMIQIEDSAGG [r19_408_TrROS]	3.2 ± 0.036	2.06 ± 0.029	2.77 ± 0.11
SAGGSAGGSAGGMLKIKVYRFDKNGKLVEEEEIELPENVKEIVIKDEKTGKYYKVEIVDSAGGSAGGSAGGS [r10_970_TrROS_Hall]	2.02 ± 0.11	1.25 ± 0.053	1.76 ± 0.15
SAGGSPMTITMWFPVDSVEQAKDLINPNFPDYDVKVDNIKPENGWVRVKYTWPNGKPQEREIPIKKSAGGSA [r2_201_TrROS]	0.324 ± 0.38	-0.226 ± 0.33	0.147 ± 0.39
SAGGSAGGSEKPEVEKITLEITLTDEDGNKHTIKVELVRNAKTKKYYLRITLEDGSEFVFEIDSAGGSAGGS [r12_286_TrROS_Hall]	4.83 ± 0.14	3.88 ± 0.14	4.71 ± 0.13
SAGMVVLTEPGNGRLVVSELPEELAEEIARELGLPDITPVPPGVPAEEARAAHPALTAALEIPPEVLLSAGG [r19_270_JUSTAS]	0.0886 ± 0.032	-0.149 ± 0.16	0.0846 ± 0.14
SAGGSAGGSAGGSKKTITVTVLFKDKNGKPVYIAKAKVTLNENGEETIEITEIYPLEDLSAGGSAGGSAGGS [r4_117_TrROS_Hall]	2.36 ± 0.15	1.8 ± 0.12	2.34 ± 0.27
SAGGKLAELKEILKKLGLPKIESIEEDPETGVLRFKASSSKPILVTVPVRSLGDGSRPIEVEIKSTNISAGG [r13_410_JUSTAS]	0.448 ± 0.32	0.227 ± 0.24	0.342 ± 0.18
IRGMPVEEIKEIARDFFRKHGMKVTTVEIVPTPNGMTQVDIEIEPPDKGRRYRIDIYVPEDGMVQIDIEPYS [r1_460_TrROS]	2.54 ± 0.13	2.23 ± 0.071	2.4 ± 0.24
SAGGSAGGSAGWFTVTMMFLFPNGWAIKITWTFRMDENGNLKLEWEVEIEPVPPLKPGDPSAGGSAGGSAGG [r11_728_TrROS]	6.21 ± 0.35	4.38 ± 0.51	> 6
SAGMVTISVTRPSSGTYVLNISNPLTGETETITLSTADPAAFKATAEAIAAELEAKGYPVKINLTPTAGSAG [r5_815_JUSTAS]	3.788 ± 0.014	3.6 ± 0.063	3.73 ± 0.048
SAGGSAGGMKAVITQPPDGTATVEIYDETTGKTTTKTIPADQPEEIEALIAGKVDEVTTTPAPASAGGSAGG [r6_640_JUSTAS]	1.35 ± 0.1	2.09 ± 0.12	1.76 ± 0.095
SAGGSAMEIEVTLTDPALLEALIAELPYPVEVSEDPTDPSVTRVTLRTETSAEEVREAVARALGLESAGGSA [r15_118_JUSTAS]	1.27 ± 0.06	0.732 ± 0.037	1.07 ± 0.081

Sequence	folding stability dG unfold [1] [kcal/mol]	folding stability dG unfold [2] [kcal/mol]	folding stability dG unfold [3] [kcal/mol]
SAGGKDIKVTVEKVGDELYILVEASKEEVEALLKAGKKEITIEINGKKVKVKAVKLPDGTVLFRVRLESAGG [r13_171_TrROS_Hall]	4.23 ± 0.052	3.28 ± 0.064	3.96 ± 0.065
SAMKLEAPVVLDGKPVEVEFDAEPFEAPDGDVYYLVPLKVTFPDGRTYTARLRLKPGGKIVSVELLSDESAG [r14_341_TrMRF]	1.31 ± 0.19	1.93 ± 0.028	1.77 ± 0.061
SAGGSSPPTVEVSFDPASGTLTITTPDGTTTYSVKSVTVTRLPPELTLITITLEDGTVLTFELVVASAGGSA [r2_268_JUSTAS]	4.65 ± 0.063	3.36 ± 0.15	4.52 ± 0.13
SAGGSKMEPGPVKIKVTDGGEEHTFDFQVSVMPDPDGRPMIMFSFPDGNPLSIPLDDAEKITDIEVSAGGSA [r2_297_TrROS]	-0.141 ± 0.29	0.322 ± 0.11	0.106 ± 0.18
SAGGVPVSVEVDPRGEVTITNPVNGSSLVIPVPPDAEVTVVSLPPSSVTVRVTVGGEERDIVLPPSSVSAGG [r19_309_JUSTAS]	0.662 ± 0.034	0.587 ± 0.023	0.621 ± 0.065
SAGGSAGGSTILDALEKGFEITDIEPNNDGPYMLTVRNPEEGYRVTIMIHPNGDIMIQVQPVPSAGGSAGGS [r12_166_TrROS]	2.19 ± 0.042	1.83 ± 0.075	2.06 ± 0.1
SAGGSAGGSAGGIDFPEKGFVVVVTFPDGSKAEFEVPSDRPLVLNETAGDVTVDEIREKDSAGGSAGGSAGG [r7_542_TrMRF]	-0.125 ± 0.18	0.955 ± 0.14	0.458 ± 0.13
SAGGMKEIEIDIPLENGEPAKIRIILLNLPDKPRAFIDIESKILPKEEIAKIITKLLPEEIKEVVIDESAGG [r13_404_TrMRF]	0.383 ± 0.5	1.03 ± 0.092	0.694 ± 0.28
SAGTADELVERAKEFARELAEEFGYKVDVDVKVQPTPDYYTIKVTVTFRNPGGMTWRFPFTITIPKEQFSAG [r5_609_TrROS]	4.91 ± 0.14	3.45 ± 0.15	4.29 ± 0.16
SAGGSAGGSAGVSTTPDGVLVIKVKDPNTGKYTEIKVPTSRPEEAEKLKEKALEEGLELESAGGSAGGSAGG [r11_538_JUSTAS]	1.49 ± 0.022	0.708 ± 0.038	1.2 ± 0.053
SAGGAIELPDLGEEEAIETLKKLAEEGIKNPVGVIRTPTKPLVITYDPETNTVTITLPDGTILTLVVSAGGS [r16_481_JUSTAS]	1.83 ± 0.028	0.755 ± 0.091	1.52 ± 0.11
SAGEDGWHVVKIWIMIPGPAQLDEFLEEHPNVEIWPNPNGYFMVRITIRVPVPPPPPERDPDNGEPEPDSAG [r5_129_TrROS]	4.66 ± 0.064	3.73 ± 0.11	4.29 ± 0.1
SAGGMKIKITEVTVTRYYYDPKTGKLKKVEKVKVLVIEVELEPGQTAEEIAAALKKLFPDLKIVVVDSAGGS [r8_30_TrROS_Hall]	5.33 ± 0.11	4.14 ± 0.092	5.17 ± 0.18
SMYKVKVKLLITNPKTGEKLEVEVEATLEEAEKLAEELEKKYPELNWKVEIKEIEIYPIPKPVLVKPGEASA [r9_14_TrMRF]	3.51 ± 0.096	2.45 ± 0.34	3.46 ± 0.22
SAGGMTLEERAEALAAERGWTVTSIELVEEKPGEVKFRVTFRLPDGSLETVEITVKRPPPVPPDNLLSAGGS [r8_309_JUSTAS]	3.726 ± 0.025	3.73 ± 0.11	3.74 ± 0.057
MLTLPDGRPAFVRARVVLPPGVRVTVVGDIPAEELERRLGRRVTPEDIVRAVVEAARRRGLTVEAVELDLRS [r1_338_TrMRF]	1.02 ± 0.031	1.11 ± 0.013	1.09 ± 0.034
SAGGMTFETETITLEFPPEDEEEIRKRAEEIAEKLKKEYEKKGYKVEVEFSYDPETGVLTITIKFEKKSAGG [r13_755_JUSTAS]	4.19 ± 0.067	3.57 ± 0.19	3.99 ± 0.11
SAGMEEEVEERTLPDGSPVTVTTFTDPATGKRTVFVRYPETGEWEVRDEEGNLIKKYGPVSFEEAKKELSAG [r5_757_JUSTAS]	2.04 ± 0.064	1.67 ± 0.024	1.97 ± 0.09
SAGGSAPGVITFMLPLDDIPPDPDGKWTHNEIKDHIRPFIQEAFGKDDIEIDVSPHPNGWVRITIRSAGGSA [r15_562_TrROS]	2.76 ± 0.056	2.41 ± 0.074	2.69 ± 0.079
SAGGPSIPGEKIRELLEKGYSLEEIVEFLEKENIPIARIEGVEPHPNSITIVFYNPETGEKITAVIGSAGGS [r8_179_TrMRF]	2.96 ± 0.081	2.02 ± 0.058	2.72 ± 0.14
SMLSEMPPEELAERIARELGLVGAEVEAVRVGDVLLVPLRLRDPVRDEVRLLVLLVVPEDDGRVLLTDLSSA [r9_1042_TrMRF]	2.5 ± 0.029	1.46 ± 0.027	2.16 ± 0.091
